Laboratory results published in paper PMC3088474 (Current biology : CB, 2011).

Molecular target: T1, MBP-Rng2-1306-end (fission yeast, UniProt O14188 1306-1489)
T1 sequence (looked up): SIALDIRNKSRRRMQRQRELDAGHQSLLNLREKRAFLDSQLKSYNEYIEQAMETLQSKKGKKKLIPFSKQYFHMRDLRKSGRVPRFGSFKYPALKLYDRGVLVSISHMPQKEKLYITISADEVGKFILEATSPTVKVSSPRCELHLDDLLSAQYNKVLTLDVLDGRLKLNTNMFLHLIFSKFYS
Experiment: pull-down

binding result: binds
B1: GST-Mid1 1–100 (domain or fragment, fission yeast, UniProt P78953 1-100, looked up)
chain: MKEQEFSYREAKDVSLDSKGLENSFLSSPNREKTPLFFEGNSNETSGYDQTKNFTHGDGDMSLGNLSELNVATDLLESLDLRSMYMHGYGHLDSSFSSQH
